Test results taken from US20260242478A1 (published 2026).
Where no end group is shown, it is not given here.

Legend:
PSMA Fab [1] = target: T1, PSMA Fab; assay: phage ELISA; biotinylated PSMA Fab on neutravidin plate, blocking buffer alone, anti-M13 HRP detection
T1 construct: also called Anti-PSMA Fab; 006 PSMA Fab
Method: (§1) Clonal phage were harvested as crude supernatants and screened via standard ELISAs. […] Prior to the addition of clonal phage. wells were incubated with blocking buffer and PSMA antigen or blocking buffer alone. Without washing or aspirating, clonal phage supernatants were then added to the wells and incubated for a short time. Wells were then washed followed by detection of bound phage using a horse radish conjugated anti-M13 antibody.

PSMA Fab [2] = target: T1, PSMA Fab; assay: phage ELISA; biotinylated PSMA Fab on neutravidin plate, pre-incubated with PSMA antigen as competitor, anti-M13 HRP detection
Method: as §1

006 PSMA Fab [3] = target: T2, 006 PSMA Fab; assay: clonal phage ELISA on biotinylated PSMA Fab captured on neutravidin plates, anti-M13 HRP detection;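 further: crude clonal phage supernatants tested, before phage were added, wells were pretreated with PSMA antigen in blocking buffer or with blocking buffer only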
T2 construct: also called Anti-PSMA Fab
Method: as §1

006 PSMA Fab [4] = target: T2, 006 PSMA Fab; assay: clonal phage ELISA on captured PSMA Fab pre-incubated with PSMA antigen as competitor, anti-M13 HRP detection;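 further: crude clonal phage supernatants tested by ELISA, wells first treated with blocking buffer plus PSMA antigen, bound phage read out via HRP-linked anti-M13 antibody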
Method: as §1

006 PSMA Fab [5] = target: T3, 006 PSMA Fab; assay: clonal phage ELISA on captured anti-PSMA Fab; competitor PSMA antigen
T3 construct: also called Anti-PSMA Fab
Method: as §1

006 PSMA Fab [6] = target: T3, 006 PSMA Fab; assay: clonal phage ELISA on biotinylated anti-PSMA Fab captured on neutravidin, anti-M13 HRP detection
Method: as §1

Binder	Phage binding ELISA signal, Anti-PSMA Fab (PSMA Fab [1])	Phage binding ELISA signal, Anti-PSMA Fab in presence of PSMA (PSMA Fab [2])	phage binding ELISA signal with PSMA antigen present (006 PSMA Fab [5])	phage binding ELISA signal (006 PSMA Fab [6])	other results
VKPVCKPVWMCVGF [Phage-3436]	1.76	0.122	–	–	–
WDMLCRPAWMCEGF (cysteine pairing not given here; also: fused to pIII of bacteriophage, linker and pIII sequence not given here, Clonal phage of the Peptide-180 optimization library, tested as crude phage supernatant; not shown: fused to pIII of the bacteriophage) [Phage-2845]	–	–	–	–	Phage binding ELISA signal, Anti-PSMA Fab (006 PSMA Fab [3]): 2.48; Phage binding ELISA signal, Anti-PSMA Fab with PSMA antigen (006 PSMA Fab [4]): 0.157
LIALCKPPWMCEWF [Phage-3526]	–	–	0.213	1.67	–
ITPMCIPAWMCEGV [Phage-3445]	1.75	0.0611	–	–	–
EVQYCVPAWMCEGF [Phage-3520]	–	–	0.117	1.68	–
VLHMCVPLWMCHGL [Phage-3435]	1.76	0.133	–	–	–
DMARCIPAWMCTGF [Phage-3523]	–	–	0.106	1.68	–
YNMICQPQWMCSGF [Phage-3447]	1.75	0.0661	–	–	–
PVRVCIPQWMCIGF [Phage-3440]	1.75	0.13	–	–	–
GYVMCEPRWMCEGL [Phage-3528]	–	–	0.0803	1.67	–
SPIMCTPDWMCLGF [Phage-3439]	1.75	0.0708	–	–	–
SAIRCEPLWMCSGL [Phage-3519]	–	–	0.0578	1.68	–
ETMICKPEWMCTGF [Phage-3441]	1.75	0.0818	–	–	–
VVPWCSPAWMCSGF [Phage-3529]	–	–	0.0752	1.67	–
TPHACVPDWMCYGF [Phage-3444]	1.75	0.0843	–	–	–
WMPRCVPEWMCAGF (cysteine pairing not given here; also: fused to pIII of bacteriophage, linker and pIII sequence not given here, Clonal phage of the Peptide-180 optimization library, tested as crude phage supernatant; not shown: fused to pIII of the bacteriophage) [Phage-2847]	–	–	–	–	Phage binding ELISA signal, Anti-PSMA Fab (006 PSMA Fab [3]): 2.48; Phage binding ELISA signal, Anti-PSMA Fab with PSMA antigen (006 PSMA Fab [4]): 0.334
VFPICKPSWMCVGM (cysteine pairing not given here; also: fused to pIII of bacteriophage, linker and pIII sequence not given here, Clonal phage of the Peptide-180 optimization library, tested as crude phage supernatant; not shown: fused to pIII of the bacteriophage) [Phage-2849]	–	–	–	–	Phage binding ELISA signal, Anti-PSMA Fab (006 PSMA Fab [3]): 2.46; Phage binding ELISA signal, Anti-PSMA Fab with PSMA antigen (006 PSMA Fab [4]): 0.174

Binder	Phage binding ELISA signal, Anti-PSMA Fab (PSMA Fab [1])	Phage binding ELISA signal, Anti-PSMA Fab in presence of PSMA (PSMA Fab [2])	phage binding ELISA signal with PSMA antigen present (006 PSMA Fab [5])	phage binding ELISA signal (006 PSMA Fab [6])	other results
YGLRCEPAWMCQGF [Phage-3443]	1.75	0.0879	–	–	–
WFRMCEPSWMCEGF [Phage-3527]	–	–	0.11	1.67	–
ALLSCVPPWMCLGL [Phage-3522]	–	–	0.0728	1.68	–
EIPYCVPQWMCVAM [Phage-3434]	1.76	0.0788	–	–	–
EERICKPQWMCSAF [Phage-3530]	–	–	0.0804	1.66	–
GPKICVPMWMCDGF [Phage-3518]	–	–	0.116	1.68	–
YPPLCKPEWMCVGL [Phage-3525]	–	–	0.0714	1.67	–
PAQMCIPQWMCNWL [Phage-3438]	1.75	0.0635	–	–	–
MPIYCVPEWMCQGL [Phage-3446]	1.75	0.0867	–	–	–
VTPRCIPEWMCAGF (cysteine pairing not given here; also: fused to pIII of bacteriophage) [Phage-3442]	1.75	0.106	–	–	–
VMTVCKPAWMCTGF (cysteine pairing not given here; also: fused to pIII of bacteriophage, linker and pIII sequence not given here, Clonal phage of the Peptide-180 optimization library, tested as crude phage supernatant; not shown: fused to pIII of the bacteriophage) [Phage-2848]	–	–	–	–	Phage binding ELISA signal, Anti-PSMA Fab (006 PSMA Fab [3]): 2.47; Phage binding ELISA signal, Anti-PSMA Fab with PSMA antigen (006 PSMA Fab [4]): 0.205
ELLHCKPMWMCIGL [Phage-3524]	–	–	0.0864	1.67	–
PGPSCVPSWMCVGF [Phage-3437]	1.76	0.074	–	–	–
PSISCTPQWMCFGF [Phage-3521]	–	–	0.0639	1.68	–
LEKVCKPMWMCTGF [Phage-3448]	1.75	0.0949	–	–	–
WEVRCVPEWMCVGF (cysteine pairing not given here; also: fused to pIII of bacteriophage, linker and pIII sequence not given here, Clonal phage of the Peptide-180 optimization library, tested as crude phage supernatant; not shown: fused to pIII of the bacteriophage) [Phage-2846]	–	–	–	–	Phage binding ELISA signal, Anti-PSMA Fab (006 PSMA Fab [3]): 2.48; Phage binding ELISA signal, Anti-PSMA Fab with PSMA antigen (006 PSMA Fab [4]): 0.119
